# Results published in PMC3087855 (Nature structural & molecular biology, 2011).
# B1: bacteriophage P22 portal protein core (residues 1-602) (domain or fragment, UniProt P26744 1-602, looked up)
# chain: MADNENRLESILSRFDADWTASDEARREAKNDLFFSRVSQWDDWLSQYTTLQYRGQFDVVRPVVRKLVSEMRQNPIDVLYRPKDGARPDAADVLMGMYRTDMRHNTAKIAVNIAVREQIEAGVGAWRLVTDYEDQSPTSNNQVIRREPIHSACSHVIWDSNSKLMDKSDARHCTVIHSMSQNGWEDFAEKYDLDADDIPSFQNPNDWVFPWLTQDTIQIAEFYEVVEKKETAFIYQDPVTGEPVSYFKRDIKDVIDDLADSGFIKIAERQIKRRRVYKSIITCTAVLKDKQLIAGEHIPIVPVFGEWGFVEDKEVYEGVVRLTKDGQRLRNMIMSFNADIVARTPKKKPFFWPEQIAGFEHMYDGNDDYPYYLLNRTDENSGDLPTQPLAYYENPEVPQANAYMLEAATSAVKEVATLGVDTEAVNGGQVAFDTVNQLNMRADLETYVFQDNLATAMRRDGEIYQSIVNDIYDVPRNVTITLEDGSEKDVQLMAEVVDLATGEKQVLNDIRGRYECYTDVGPSFQSMKQQNRAEILELLGKTPQGTPEYQLLLLQYFTLLDGKGVEMMRDYANKQLIQMGVKKPETPEEQQWLVEAQQAKQG
# modifications: selenomethionine derivatized (methionines replaced by selenomethionine)
# Biological target: the molecule itself
# Assay: crystal structure
protein,measurement,value
B1,stoichiometry N,12
